Assay results: patent US20190134153A1, “IMMUNOMODULATORY EFFECT OF INHALED KINASE INHIBITOR PEPTIDES IN LUNG” (MOERAE MATRIX, INC., priority 2017, published 2019)

Key:
Experiment in all cases: Kinase Profiling Assay
Type in all cases: biochemical
Conditions in all cases: 100 μM
HIPK1(h) = HIPK1(h) (Homo sapiens, UniProt Q86Z02)
IR(h), activated = IR(h), activated (Homo sapiens, UniProt P06213)
MAPKAP-K2(h) = MAPKAP-K2(h) (Homo sapiens, UniProt P49137)
MKK6(h) = target: T1, MKK6(h) (Homo sapiens, UniProt P52564)
T1 sequence (P52564 1-334): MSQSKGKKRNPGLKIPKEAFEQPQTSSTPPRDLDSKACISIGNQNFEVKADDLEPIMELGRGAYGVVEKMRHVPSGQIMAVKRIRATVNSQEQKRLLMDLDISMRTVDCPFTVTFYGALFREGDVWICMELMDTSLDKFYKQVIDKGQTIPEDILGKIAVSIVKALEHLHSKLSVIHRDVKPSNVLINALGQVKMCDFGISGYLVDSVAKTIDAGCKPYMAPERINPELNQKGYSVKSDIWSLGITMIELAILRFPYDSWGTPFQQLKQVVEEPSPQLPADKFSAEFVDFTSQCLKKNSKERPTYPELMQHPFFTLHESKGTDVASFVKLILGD

MuSK(h) = target: T2, MuSK(h) (Homo sapiens, UniProt O15146)
T2 sequence (O15146 24-869): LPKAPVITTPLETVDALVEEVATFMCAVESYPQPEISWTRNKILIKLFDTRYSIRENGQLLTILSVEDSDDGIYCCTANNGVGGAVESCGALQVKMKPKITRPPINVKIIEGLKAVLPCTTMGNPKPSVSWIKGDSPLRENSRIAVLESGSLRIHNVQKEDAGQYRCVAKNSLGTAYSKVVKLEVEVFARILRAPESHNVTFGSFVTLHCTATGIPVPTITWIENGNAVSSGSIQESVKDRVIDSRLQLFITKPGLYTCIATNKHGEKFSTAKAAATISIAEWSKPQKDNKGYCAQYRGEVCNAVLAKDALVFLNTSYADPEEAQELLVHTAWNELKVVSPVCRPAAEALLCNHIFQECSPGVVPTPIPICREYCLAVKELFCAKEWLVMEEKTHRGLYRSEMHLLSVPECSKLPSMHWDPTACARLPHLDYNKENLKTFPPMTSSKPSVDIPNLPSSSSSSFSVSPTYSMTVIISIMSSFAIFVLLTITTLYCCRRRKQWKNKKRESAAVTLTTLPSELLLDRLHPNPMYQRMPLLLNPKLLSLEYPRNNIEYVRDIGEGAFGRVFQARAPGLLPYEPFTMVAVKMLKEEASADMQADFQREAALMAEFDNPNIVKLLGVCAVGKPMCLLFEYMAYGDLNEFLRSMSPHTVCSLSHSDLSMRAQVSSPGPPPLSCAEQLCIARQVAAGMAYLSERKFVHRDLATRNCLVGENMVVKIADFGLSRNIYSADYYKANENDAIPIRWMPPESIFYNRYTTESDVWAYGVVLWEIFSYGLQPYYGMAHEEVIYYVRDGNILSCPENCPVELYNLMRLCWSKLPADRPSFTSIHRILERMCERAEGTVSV

PKBγ(h) = PKBγ(h) (Homo sapiens, UniProt Q9Y243)
PKG1β(h) = target: T3, PKG1β(h) (Homo sapiens, UniProt Q13976)
T3 sequence (Q13976 1-686 isoform Q13976-2): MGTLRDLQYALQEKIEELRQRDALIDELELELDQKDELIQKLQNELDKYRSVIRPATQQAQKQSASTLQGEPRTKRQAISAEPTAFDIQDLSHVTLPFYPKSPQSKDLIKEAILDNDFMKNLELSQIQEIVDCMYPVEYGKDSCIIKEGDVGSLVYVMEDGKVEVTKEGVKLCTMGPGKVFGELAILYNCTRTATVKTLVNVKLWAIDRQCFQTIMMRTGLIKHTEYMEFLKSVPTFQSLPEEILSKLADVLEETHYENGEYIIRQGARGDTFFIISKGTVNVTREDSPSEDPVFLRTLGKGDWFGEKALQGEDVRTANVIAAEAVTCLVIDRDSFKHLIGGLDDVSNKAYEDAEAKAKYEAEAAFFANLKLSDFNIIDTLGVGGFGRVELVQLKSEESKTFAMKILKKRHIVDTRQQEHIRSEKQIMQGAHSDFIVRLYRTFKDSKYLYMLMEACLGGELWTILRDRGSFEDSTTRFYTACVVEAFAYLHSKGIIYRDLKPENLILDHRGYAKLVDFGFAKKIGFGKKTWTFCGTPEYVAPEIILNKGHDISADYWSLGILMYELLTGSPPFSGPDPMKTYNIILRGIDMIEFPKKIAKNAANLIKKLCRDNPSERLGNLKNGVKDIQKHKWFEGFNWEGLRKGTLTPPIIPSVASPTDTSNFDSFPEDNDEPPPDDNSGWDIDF

ZAP-70(h) = target: T4, ZAP-70(h) (Homo sapiens, UniProt P43403)
T4 sequence (P43403 1-619): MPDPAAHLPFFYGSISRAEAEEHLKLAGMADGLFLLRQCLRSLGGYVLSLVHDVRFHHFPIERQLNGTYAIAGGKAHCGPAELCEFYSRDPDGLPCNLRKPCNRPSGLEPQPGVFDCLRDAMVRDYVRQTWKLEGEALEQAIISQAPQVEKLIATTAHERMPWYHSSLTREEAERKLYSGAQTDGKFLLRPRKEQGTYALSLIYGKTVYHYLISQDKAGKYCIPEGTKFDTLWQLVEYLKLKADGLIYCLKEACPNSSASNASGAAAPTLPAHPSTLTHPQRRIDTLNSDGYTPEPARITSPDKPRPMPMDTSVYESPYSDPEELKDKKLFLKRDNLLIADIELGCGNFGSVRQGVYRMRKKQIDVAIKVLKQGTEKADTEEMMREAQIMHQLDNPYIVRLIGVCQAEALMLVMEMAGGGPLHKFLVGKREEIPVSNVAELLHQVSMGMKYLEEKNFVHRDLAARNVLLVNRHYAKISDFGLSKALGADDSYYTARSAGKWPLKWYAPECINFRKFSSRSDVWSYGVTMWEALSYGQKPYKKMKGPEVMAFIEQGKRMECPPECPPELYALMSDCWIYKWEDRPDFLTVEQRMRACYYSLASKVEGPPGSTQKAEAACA

MAPKAP-K2(h), sequence (P49137 whole entry): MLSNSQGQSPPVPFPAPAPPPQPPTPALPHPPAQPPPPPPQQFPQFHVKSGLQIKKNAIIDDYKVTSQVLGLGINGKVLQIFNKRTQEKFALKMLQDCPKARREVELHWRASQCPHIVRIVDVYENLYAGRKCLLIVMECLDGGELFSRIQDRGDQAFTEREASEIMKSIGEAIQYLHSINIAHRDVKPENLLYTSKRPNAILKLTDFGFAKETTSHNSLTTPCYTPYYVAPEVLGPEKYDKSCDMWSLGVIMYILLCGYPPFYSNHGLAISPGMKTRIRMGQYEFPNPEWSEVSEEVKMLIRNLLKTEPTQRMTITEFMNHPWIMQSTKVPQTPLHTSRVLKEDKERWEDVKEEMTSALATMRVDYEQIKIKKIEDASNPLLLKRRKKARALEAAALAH
PKBγ(h), sequence (Q9Y243 whole entry): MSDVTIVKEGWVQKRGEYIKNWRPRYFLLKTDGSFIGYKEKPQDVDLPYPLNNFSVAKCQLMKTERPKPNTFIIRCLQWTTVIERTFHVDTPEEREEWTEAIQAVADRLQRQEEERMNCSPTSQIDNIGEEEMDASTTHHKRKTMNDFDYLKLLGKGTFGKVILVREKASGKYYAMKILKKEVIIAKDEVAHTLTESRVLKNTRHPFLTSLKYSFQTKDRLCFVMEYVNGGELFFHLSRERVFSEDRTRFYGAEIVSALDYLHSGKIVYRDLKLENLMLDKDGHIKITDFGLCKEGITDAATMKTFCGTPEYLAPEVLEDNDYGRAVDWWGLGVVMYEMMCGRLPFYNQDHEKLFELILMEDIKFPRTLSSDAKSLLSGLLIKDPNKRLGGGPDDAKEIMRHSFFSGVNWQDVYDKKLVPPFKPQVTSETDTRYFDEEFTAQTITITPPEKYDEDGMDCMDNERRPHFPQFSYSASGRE
HIPK1(h), sequence (Q86Z02 whole entry): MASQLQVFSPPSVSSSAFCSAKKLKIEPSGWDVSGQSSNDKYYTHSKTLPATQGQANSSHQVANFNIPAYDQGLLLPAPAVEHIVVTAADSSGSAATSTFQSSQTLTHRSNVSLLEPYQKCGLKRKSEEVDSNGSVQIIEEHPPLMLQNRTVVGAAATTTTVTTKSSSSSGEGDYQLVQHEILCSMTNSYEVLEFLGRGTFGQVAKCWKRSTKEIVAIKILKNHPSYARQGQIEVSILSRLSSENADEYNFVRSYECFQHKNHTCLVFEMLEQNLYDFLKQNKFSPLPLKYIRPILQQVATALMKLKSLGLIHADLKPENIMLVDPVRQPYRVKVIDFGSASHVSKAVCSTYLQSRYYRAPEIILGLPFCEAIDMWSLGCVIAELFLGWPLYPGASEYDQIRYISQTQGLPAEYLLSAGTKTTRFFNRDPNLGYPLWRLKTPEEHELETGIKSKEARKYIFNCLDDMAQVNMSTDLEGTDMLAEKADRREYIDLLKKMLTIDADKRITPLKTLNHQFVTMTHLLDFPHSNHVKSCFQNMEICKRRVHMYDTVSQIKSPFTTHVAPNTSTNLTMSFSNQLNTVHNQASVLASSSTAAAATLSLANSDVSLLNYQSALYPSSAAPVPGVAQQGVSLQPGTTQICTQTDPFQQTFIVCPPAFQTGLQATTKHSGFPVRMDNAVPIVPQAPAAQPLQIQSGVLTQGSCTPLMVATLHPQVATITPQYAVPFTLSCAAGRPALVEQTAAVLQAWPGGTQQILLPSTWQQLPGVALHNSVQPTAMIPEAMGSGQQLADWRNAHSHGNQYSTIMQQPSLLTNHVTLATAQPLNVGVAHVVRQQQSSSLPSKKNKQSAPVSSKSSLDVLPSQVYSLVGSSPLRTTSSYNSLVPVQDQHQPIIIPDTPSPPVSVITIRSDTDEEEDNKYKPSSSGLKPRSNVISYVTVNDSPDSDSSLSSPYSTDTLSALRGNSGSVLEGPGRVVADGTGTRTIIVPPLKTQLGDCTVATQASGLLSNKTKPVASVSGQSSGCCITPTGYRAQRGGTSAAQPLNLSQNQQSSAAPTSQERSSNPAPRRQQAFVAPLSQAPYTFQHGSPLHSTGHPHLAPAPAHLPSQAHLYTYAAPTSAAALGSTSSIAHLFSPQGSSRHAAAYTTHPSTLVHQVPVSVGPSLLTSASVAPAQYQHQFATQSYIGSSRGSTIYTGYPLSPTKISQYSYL

Sequence	% activity (HIPK1(h)) [%]	% activity (IR(h), activated) [%]	% activity (MAPKAP-K2(h)) [%]	% activity (MKK6(h)) [%]	% activity (MuSK(h)) [%]	% activity (PKBγ(h)) [%]	% activity (PKG1β(h)) [%]	% activity (ZAP-70(h)) [%]
HRRIKAWLKKIKALARQLGVAA [MMI-0500]	47	90	9	18	27	20	24	1
YARAAARQARAKALNRQLGVA [MMI-0200]			35	98			57	58
KAFAKLAARLYRKALARQLGVAA [MMI-0400]	91	59	5	44	93	41	53	33
FAKLAARLYRKALARQLGVAA [MMI-0300]	74	79	5	48	93	20	50	75
